Assay results taken from article PMC11945200, “Aptamer Paper-Based Fluorescent Sensor for Determination of SARS-CoV-2 Spike Protein”.

Biological target: SARS-CoV-2 spike S1 protein (SARS-CoV-2, UniProt P0DTC2 13-685)
Experiment: fluorescence recovery (target-induced release of the probe from Nb2C MXene quencher)
Conditions: protein: recombinant

B1: SARS-CoV-2 S-RBD aptamer (G-CDs@Apt) (ssDNA)
DNA: CAGCACCGACCTTGTGCTTTGGGAGTGCTGGTCCAAGGGCGTTAATGGACA
modifications: 5'-NH2-C6
B1: binds.
